Assay results as given in doi:10.1101/681668 (bioRxiv, 2019).

How the values were obtained:
Assay in all cases: pull-down
MBP-ORC1 A-A = target: T1, MBP-ORC1 A-A (human, UniProt Q13415 1-861, 235KRL237 to 235ARA237)
T1 sequence: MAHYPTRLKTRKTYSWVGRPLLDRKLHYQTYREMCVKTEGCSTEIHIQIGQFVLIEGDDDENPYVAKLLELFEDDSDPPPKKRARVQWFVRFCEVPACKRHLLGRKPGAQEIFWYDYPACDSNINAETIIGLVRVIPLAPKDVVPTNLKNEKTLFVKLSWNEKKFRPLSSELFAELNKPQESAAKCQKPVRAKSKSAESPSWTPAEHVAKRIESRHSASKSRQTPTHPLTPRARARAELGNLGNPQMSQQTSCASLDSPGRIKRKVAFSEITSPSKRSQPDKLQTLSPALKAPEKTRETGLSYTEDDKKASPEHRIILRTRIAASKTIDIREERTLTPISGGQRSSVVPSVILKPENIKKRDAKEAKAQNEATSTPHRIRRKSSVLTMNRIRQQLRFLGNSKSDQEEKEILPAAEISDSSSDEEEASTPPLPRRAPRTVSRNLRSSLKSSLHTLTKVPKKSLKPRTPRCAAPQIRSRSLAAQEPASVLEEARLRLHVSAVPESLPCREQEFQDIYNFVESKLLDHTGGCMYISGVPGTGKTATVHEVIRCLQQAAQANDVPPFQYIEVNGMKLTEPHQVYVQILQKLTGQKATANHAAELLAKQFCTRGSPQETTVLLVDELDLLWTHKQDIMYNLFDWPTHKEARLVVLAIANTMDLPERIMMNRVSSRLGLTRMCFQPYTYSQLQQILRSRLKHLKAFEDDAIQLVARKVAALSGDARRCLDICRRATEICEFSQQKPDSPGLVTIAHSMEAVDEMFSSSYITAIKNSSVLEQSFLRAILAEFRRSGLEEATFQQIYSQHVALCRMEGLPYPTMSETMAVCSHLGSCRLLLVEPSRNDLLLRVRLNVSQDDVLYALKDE

MBP-ORC1 CDK12 = target: T2, MBP-ORC1 CDK12 (human, UniProt Q13415 1-861, S258A | S273A)
T2 sequence: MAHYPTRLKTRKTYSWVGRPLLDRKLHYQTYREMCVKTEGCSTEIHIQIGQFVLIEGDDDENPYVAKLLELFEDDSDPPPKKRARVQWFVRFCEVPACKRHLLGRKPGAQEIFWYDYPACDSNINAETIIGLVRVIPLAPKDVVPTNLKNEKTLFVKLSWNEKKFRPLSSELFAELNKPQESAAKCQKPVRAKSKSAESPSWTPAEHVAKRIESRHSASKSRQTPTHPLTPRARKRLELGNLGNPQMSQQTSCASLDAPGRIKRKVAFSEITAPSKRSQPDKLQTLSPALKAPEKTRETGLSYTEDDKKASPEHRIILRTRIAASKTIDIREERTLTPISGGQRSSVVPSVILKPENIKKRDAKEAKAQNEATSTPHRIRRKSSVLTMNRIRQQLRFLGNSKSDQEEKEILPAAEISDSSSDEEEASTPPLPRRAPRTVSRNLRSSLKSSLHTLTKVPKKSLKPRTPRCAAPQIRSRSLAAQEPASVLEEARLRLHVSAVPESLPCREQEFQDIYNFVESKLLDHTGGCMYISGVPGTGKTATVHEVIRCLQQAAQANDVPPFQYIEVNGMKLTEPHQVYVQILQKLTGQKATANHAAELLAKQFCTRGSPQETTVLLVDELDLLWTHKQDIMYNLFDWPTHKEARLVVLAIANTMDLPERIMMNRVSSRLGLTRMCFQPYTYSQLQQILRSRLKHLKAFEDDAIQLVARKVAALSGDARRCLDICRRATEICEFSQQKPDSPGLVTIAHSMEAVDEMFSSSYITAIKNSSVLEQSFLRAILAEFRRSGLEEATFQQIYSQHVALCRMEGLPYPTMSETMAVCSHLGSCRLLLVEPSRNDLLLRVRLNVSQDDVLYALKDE

MBP-ORC1 = target: T3, MBP-ORC1 (human, UniProt Q13415 1-861)
T3 sequence: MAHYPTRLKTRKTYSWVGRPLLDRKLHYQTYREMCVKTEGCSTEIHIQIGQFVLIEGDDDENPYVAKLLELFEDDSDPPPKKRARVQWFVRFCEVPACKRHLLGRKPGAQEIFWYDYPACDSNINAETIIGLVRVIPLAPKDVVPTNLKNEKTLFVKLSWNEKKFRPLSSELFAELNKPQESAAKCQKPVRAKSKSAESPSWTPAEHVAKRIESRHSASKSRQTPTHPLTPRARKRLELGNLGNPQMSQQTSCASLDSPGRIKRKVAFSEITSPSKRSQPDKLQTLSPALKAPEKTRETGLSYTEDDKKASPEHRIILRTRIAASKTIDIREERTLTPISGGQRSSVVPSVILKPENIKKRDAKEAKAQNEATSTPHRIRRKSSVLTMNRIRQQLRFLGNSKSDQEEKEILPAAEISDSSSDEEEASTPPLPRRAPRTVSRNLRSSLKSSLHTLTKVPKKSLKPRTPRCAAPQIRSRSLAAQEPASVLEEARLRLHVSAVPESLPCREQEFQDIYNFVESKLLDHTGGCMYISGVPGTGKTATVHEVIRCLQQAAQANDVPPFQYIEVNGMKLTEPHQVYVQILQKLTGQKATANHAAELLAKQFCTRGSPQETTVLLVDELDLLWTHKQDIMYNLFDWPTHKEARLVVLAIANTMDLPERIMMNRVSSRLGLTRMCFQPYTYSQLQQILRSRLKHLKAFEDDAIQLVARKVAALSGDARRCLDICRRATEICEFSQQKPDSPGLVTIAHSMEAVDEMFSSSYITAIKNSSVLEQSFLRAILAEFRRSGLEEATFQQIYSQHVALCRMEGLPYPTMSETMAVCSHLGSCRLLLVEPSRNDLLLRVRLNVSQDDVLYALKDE

Measured: binding result

B1: GST-CDC6 (natural protein)
chain: MPQTRSQAQATISFPKRKLSRALNKAKNSSDAKLEPTNVQTVTCSPRVKALPLSPRKRLGDDNLCNTPHLPPCSPPKQGKKENGPPHSHTLKGRRLVFDNQLTIKSPSKRELAKVHQNKILSSVRKSQEITTNSEQRCPLKKESACVRLFKQEGTCYQQAKLVLNTAVPDRLPAREREMDVIRNFLREHICGKKAGSLYLSGAPGTGKTACLSRILQDLKKELKGFKTIMLNCMSLRTAQAVFPAIAQEICQEEVSRPAGKDMMRKLEKHMTAEKGPMIVLVLDEMDQLDSKGQDVLYTLFEWPWLSNSHLVLIGIANTLDLTDRILPRLQAREKCKPQLLNFPPYTRNQIVTILQDRLNQVSRDQVLDNAAVQFCARKVSAVSGDVRKALDVCRRAIEIVESDVKSQTILKPLSECKSPSEPLIPKRVGLIHISQVISEVDGNRMTLSQEGAQDSFPLQQKILVCSLMLLIRQLKIKEVTLGKLYEAYSKVCRKQQVAAVDQSECLSLSGLLEARGILGLKRNKETRLTKVFFKIEEKEIEHALKDKALIGNILATGLP
binds: all assays above
